The subject of the test is Foc_TR4. Description: In vitro spore germination and mycelial growth assay. It counts as cell-based, Fusarium oxysporum f.sp. cubense Tropical Race 4. The settings on record: Foc_TR4 spores, purified Pichia-secreted protein, low ionic strength media, 25° C., A595 at 48 hours; read-out: IC50 (μM, CE fraction).

For orientation: IC50 means the point on the concentration scale where inhibition reaches its midpoint. In the case of “Mba02_g12080.1: defensin antimicrobial protein, Musa acuminata, without yeast signal peptide (RTCESQSHKFVGPCVREANCANVCHTEGFHGGVCRGTLIHRKCYCTKNC; listed as Musa acuminata)”, the IC50 came to 6 ± 0.59 µM. On to “Ma06_p21420.1: defensin antimicrobial protein, Musa acuminata (KICRLPSIGFRGPCTSDKNCAKVCRREGFDSGDCEGYTMGCLCNKHC; listed as Musa acuminata)”, for which the half-inhibitory concentration (IC50) was found to be 3 ± 0.17 µM.

“Ma02_p12840.1: defensin antimicrobial protein, Musa acuminata (RTCESQSHKFVGPCVRKANCGNVCQTEGFHGGVCRGSLIHRKCYCTKNC; listed as Musa acuminata)”: the IC50 amounted to 0.86 ± 0.07 µM. On to “Ma08_p13660.1: defensin antimicrobial protein, Musa acuminata (RKCESASHKFKGLCFRASNCANVCKTEGFHGGHCRGLRRRCFCTKHCNSAT; listed as Musa acuminata)”, for which the IC50 is more than 25 µM. As for “Ma04_p36140.1: defensin antimicrobial protein, Musa acuminata (RTCESASTRFKGTCVRSSNCASVCQGEGFPDGKCEGVRRRCMCRKPC; listed as Musa acuminata)”, the IC50 turned out to be 0.84 ± 0.06 µM. For the molecule “Ma11_p12930.1: defensin antimicrobial protein, Musa acuminata (RVCRYASRSFRGLCFSDTNCAHVCQTEGFNGGHCHGLRRRCMCLRRGC; listed as Musa acuminata)”, the IC50 amounted to 0.17 ± 0.006 µM. As for “GB ID: RRT50697.1: defensin antimicrobial protein, Musa acuminata (RTCESASSRFKGTCVRSSNCASVCQGEGFPDGRCEGLRRRCMCRKPC; listed as Musa acuminata)”, the IC50 worked out at 0.51 ± 0.01 µM.

B1: Ma02_p17990.1: TLP antimicrobial protein, Musa acuminata (protein, listed as Musa acuminata)
chain: QYPAMTLTVVNNCPFTVWPAIQPNSGHDVLERGGFALPTVTHRSFPAPTQHWSGRIWARTGCTYANGRFSCATGDCGGRLECGGLGGAAPATLAQVTLHHGGQQDLSSYGVSLVDGFNVGMTVTPHEGKGRCPVVGCRENLLATCPDVLQLRAPAGGGQVVGCKSGCQAFGTDELCCRNMYNSPRTCRASSYSEFFKHACPATFTYAHDSPSLTHECAAPRELKVIFCH
Turning to B1, the IC50 turned out to be 0.64 µM.

B2: Ma06_p09450.1: snakin antimicrobial protein, Musa acuminata (protein, listed as Musa acuminata)
chain: ADSAYCKSKCKVRCAKAGVMDRCLYYCGMCCEECKCVPSGTYGNKDECPCYRDKVTKDDKKKSKCP
With B2, the IC50 stood at 2.71 ± 0.53 µM.

B3: Ma08_p22790.1: snakin antimicrobial protein, Musa acuminata (protein, listed as Musa acuminata)
chain: RISLAPTAQPGNPLGPTPQPIKFPMYGATPGSLQPQECSGRCAGRCSATAYKKPCMFFCQKCCAKCLCVPPGTYGNKQVCPCYNNWKTKRGGPKCP
B3: the IC50 was 0.52 ± 0.08 µM.

B4: Ma10_p18110.1: snakin antimicrobial protein, Musa acuminata (protein, listed as Musa acuminata)
chain: GSAFCGSKCKVRCSKASVKDRCLKYCGLCCEQCRCVPSGTYGHKDECPCYRDKYTGSGKRRRPKCP
B4: the IC50 amounted to 1.31 ± 0.03 µM.

B5: Ma06_p33170.1: TLP antimicrobial protein, Musa acuminata (protein, listed as Musa acuminata)
chain: NFEIVNRCSYTVWAAAVPGGGRQLNQGQSWTINVKAGTTGGRIWGRTGCSFDGSGHGRCQTGDCGGLLACTAYGSPPNTLAEFALNQYSNQDYVDISLVDGFNVPMDFSPTSGGCRGMRCTADINKKCPTALKAPGGCNNPCTVFKTDQYCCNSGSCQPTEYSKFFKSNCPDAYSYPKDDPTSLVACPGGTNYRVVFCP
With B5, the IC50 came out at 0.052 ± 0.002 µM.

B6: Ma06_p00870.1: snakin antimicrobial protein, Musa acuminata (protein, listed as Musa acuminata)
chain: KDLPAEEFGVSLAEKGHKHKHSGFSEAECPGACQYRCSKTAYKKPCLFFCQKCCFKCRCVPPGTYAHKEVCPCYNNWKTKRGGPKCP
In the case of B6, the IC50 was more than 16 µM.

B7: Ma09_p21930.1: LTP antimicrobial protein, Musa acuminata (protein, listed as Musa acuminata)
chain: VTCNPLELSPCSSAVLSGARPSAACCAKLKEQQPCFCQYKKNPSLKDYVNSDNGKKALKACGVPIPSC
On to B7, for which the IC50 is 1.86 ± 0.08 µM.

B8: Ma07_p17800.1: TLP antimicrobial protein, Musa acuminata (protein, listed as Musa acuminata)
chain: ATFDIVNQCSFTVWAAAVPGGGRQLDPSQTWSINVNPGTTGGRVWARTDCSFDGSGSGSCQTGDCGGLLECQGYGTPPNTLAEFALNQFQNMDFIDISLVDGFNVPMDFSPTSGDCRGIRCSADINGQCPAELRAPGGCNNPCTVFKTDEYCCTSGSCGPTNYSMFFKNNCPDAYSYPKDDATSTFTCPGGTNYRVVFCP
Regarding B8, the IC50 was more than 25 µM.

B9: Ma09_p13940.1: snakin antimicrobial protein, Musa acuminata (protein, listed as Musa acuminata)
chain: RKAVVEDEPPVSGGGDGKPPVPVIDCAGLCGVRCSRHSRPNLCKRACGTCCFRCKCVPPGTSGNREMCGACYTNMTTHGNRTKCP
For the molecule B9, the IC50 came to 0.38 ± 0.01 µM.

B10: Ma11_p18240.1: LTP antimicrobial protein, Musa acuminata (protein, listed as Musa acuminata)
chain: AIGCGQIISYLIPCLGYAQGTGPLTDGCCSGVRALNGAAQTTPDRQATCNCLKRSAAGVSGIQPGLIAGIPSKCGINVPYRISPSTDCSRVR
Consider B10, for which the IC50 came to 2.25 ± 0.16 µM.

B11: Ma04_p30830.1: LTP antimicrobial protein, Musa acuminata (protein, listed as Musa acuminata)
chain: ATCNPTELTPCAAAILKSSPPSSLCCSKLKSQAPCFCQYQKNPSLSRYISGGRKVAAACGVPVPSC
For the molecule B11, the IC50 is 6.34 ± 0.23 µM.

B12: Ma04_p17200.1: LTP antimicrobial protein, Musa acuminata (protein, listed as Musa acuminata)
chain: ITCGQVTSALSSCISYATGKGPLSTACCSGVKSLNSAAKTTADRKTACTCIKSTVSRLSGAQAGAIAGIPGKCGVSIGYPISASTDCSKVK
For the molecule B12, the IC50 came to 2.09 ± 0.06 µM.

B13: Ma09_p26730.1: TLP antimicrobial protein, Musa acuminata (protein, listed as Musa acuminata)
chain: ATFEIVNWCPFTVWAAAVPGGGRQLDRGQTWVLDVNPGTTGGRIWARTGCSFDGSGSGSCQTGDCGGVLACQGYGSPPNTLAEFALNQFDNLDFLDVSLVDGFNVPMEFSPITGNCSAIRCLADIKGQCPAELWTPGGCNNPCTVFKTDEYCCTSGSCGPTNYSNFFKSNCPDAYSYPKDDATSTFTCPGNGDYKVIFCPSDGYPTRFGRTAVRFVIPRA
On to B13, for which the IC50 was more than 31 µM.

B14: Ma04_p17240.1: LTP antimicrobial protein, Musa acuminata (protein, listed as Musa acuminata)
chain: ITCSQVYGDLISCVGYLQGGPIKQQCCSGIKSLIAAARTTQDRRTACGCIKTAAAGLSGIDYGRVSQLPGQCGISVSYKISPNVDCSKIN
Regarding B14, the IC50 stood at 1.92 ± 0.13 µM.

B15: Ma04_p17190.1: LTP antimicrobial protein, Musa acuminata (protein, listed as Musa acuminata)
chain: ITCSQVYGDLISCVGYLQGGPIKQQCCSGIKSLIAAARTTKDRRTACGCIKTAAAGLSGIDYGRVSQLPGQCGISVSYKISPNVDCSKIN
Consider B15, for which the IC50 came out at 3.47 ± 0.21 µM.

B16: Ma07_p21450.1: snakin antimicrobial protein, Musa acuminata (protein, listed as Musa acuminata)
chain: KDAFMEAGYAKAPVVAPVPAPPAPRIIKDTKECGDACKDRCKLHSRQNVCSRACITCCSVCKCVPPGTYGHTELCGKCYTDWKTHGNRTKCP
For the molecule B16, the IC50 is 0.9 ± 0.05 µM.

B17: Ma09_p27770.1: snakin antimicrobial protein, Musa acuminata (protein, listed as Musa acuminata)
chain: GSLKPSECNNKCDFRCSATSHKKPCLFFCKECCATCLCVPPGTYGNKEACPCYNNWKTKEGGPKCP
As to B17, the IC50 was 0.08 ± 0.003 µM.

B18: Ma06_p33150.1: TLP antimicrobial protein, Musa acuminata (protein, listed as Musa acuminata)
chain: TFEIVNRCSYTVWAAAVPGGGRQLNQGQSWTINVNAGTTGGRIWGRTGCSFDGSGRGRCQTGDCGGVLSCTAYGSPPNTLAEFALNQFNNLDFFDISLVDGFNVPMDFSPTSGGCRGIRCAADINGQCPGALKAPGGCNNPCTVFKTDQYCCNSGSCSPTDYSRFFKRNCPDAYSYPKDDQTSTFTCPGGTNYRVVFCP
B18: the IC50 was found to be 0.029 ± 0.001 µM.

B19: Ma03_p07220.1: TLP antimicrobial protein, Musa acuminata (protein, listed as Musa acuminata)
chain: ATLALYNKCRETVWPGIQPSAGKAVLARGGFQLLPNQAYSLRLPAGWSGRVWGRRGCAFDPATGRGRCATGDCGGALYCNGLGGAPPATLAEFTLGQGRQQDFYDVSLVDGYNLGMSMTPFRGSGQCGRAGCVSDLNEVCPAGLAVRGGTDNRVVACKSACSAFGSPRYCCTGSFGGPQQCKPTAYSRLFKAACPRAYSYAYDDPTSILTCTGASYLVTFCPQH
Regarding B19, the IC50 was found to be 0.009 ± 0.0005 µM.

B20: Ma06_p20150.1: snakin antimicrobial protein, Musa acuminata (protein, listed as Musa acuminata)
chain: EREINCEAKCSHRCSKASRHKMCMRACVDCCHKCHCVPPGTYGHKEECPCYAHMKTRHGKPKCP
Turning to B20, the IC50 was 0.53 ± 0.01 µM.

Values taken from patent US20240141372A1, “TRANSGENIC BANANA PLANTS HAVING INCREASED RESISTANCE TO FUSARIUM OXYSPORUM TROPICAL RACE 4 AND METHODS OF PRODUCING SAME” (Elo Life Systems, priority 2022, published 2024).
